Experimental data published in publication PMC5967604.

Legend:
[1] = target: OSM-3G444E^Halo (C. elegans) (UniProt P46873); test: single-molecule colocalisation of differentially labelled proteins
[2] = target: OSM-3^SNAP (C. elegans) (UniProt P46873); test: as above

Substance “QCC with GFP-tagged IFT-52(OSM-6), G5EDF6 1-472; Q0G838 1-471; G5ED37 1-820; Q8I7G4 1-656” has a colocalisation efficiency [1] of 85% and a colocalisation efficiency [2] of 81%.
